Measurements as given in US7629315B2, “Compositions for blocking the inhibitory effect of human CRP on human leptin” (University of Pittsburgh of the Commonwealth System of …, priority 2005, dated 2009).
“Also recorded” adds a separate entry of the source. [ ]: non-standard residue; d: D form.

Experiments:
[1] = biological target: T1, human CRP (Homo sapiens, UniProt P02741); test: Block of the inhibitory effect of human CRP on leptin-stimulated STAT3 phosphorylation in HEK-293 OB-Rb cells; assay type: cell-based; conditions: for restoration of leptin-stimulated STAT3 activation in the presence of human CRP: hexamer at concentrations as high as 0.8 μM, human CRP 8 μg/ml, human leptin 2 nM, 1-hour pre-incubation
T1 construct: purchased CHEMICON International
T1 sequence (P02741 19-224): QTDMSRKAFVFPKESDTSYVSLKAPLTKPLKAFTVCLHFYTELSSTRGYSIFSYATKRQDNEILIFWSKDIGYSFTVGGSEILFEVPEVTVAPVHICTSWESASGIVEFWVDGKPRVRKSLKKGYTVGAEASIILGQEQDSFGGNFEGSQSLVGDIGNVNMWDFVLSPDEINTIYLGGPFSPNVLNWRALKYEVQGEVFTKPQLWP
Method: In the in vitro experiment, Peptide-E was pre-incubated with human CRP for 30 minutes before being mixed with human leptin for an additional 45 minutes. The resultant mixture was then added to the HEK-293 cells overexpressing the long form leptin receptors, OB-Rb (FIG. 9). After a 30 minute incubation, the cells were harvested in a protein extraction buffer (Zhao, et al., 1997, PNAS). The signaling of leptin in the cells, measured by its ability to stimulate tyrosine phosphorylation on STAT3 in a western blot assay, was evaluated.
Using a design similar to the in vitro experiment described in Example 5, the hexamer of the '388 patent (SEQ ID NO:3) was pre-incubated with human CRP (8 μg/ml) and human leptin (2 nM) for 1-hour. The resultant mixture was then added to the HEK-293 cells overexpressing the long form leptin receptors, OB-Rb (FIG. 12). After a 30 minute incubation, the cells were harvested in a protein extraction buffer. The signaling of human leptin in the cells, measured by its ability to stimulate tyrosine phosphorylation on STAT3 in a western blot assay, was evaluated.

[2] = tested on: leptin-induced tyrosine phosphorylation of STAT3; test: Leptin-induced STAT3 tyrosine phosphorylation in HEK293 cells expressing OB-Rb (western blot), human leptin; assay type: cell-based; conditions: human leptin 2 nM, protein pre-incubated with leptin, HEK293 OB-Rb cells
Method: (§1) 2. Signaling Studies: A HEK293 cell line stably expressing the human long-form receptor, OB-Rb (M. Friedman-Einat et al., 2003, Regul. Pept. 111, 77) was serum starved for 2-h before addition of leptin and CRP. Leptin (SEQ ID NO:4), in the presence or absence of C-reactive proteins, was pre-incubated in μ-MEM for 30 minutes at 37° C. before applied to the cells. After a 30-incubation with leptin (SEQ ID NO:4), the cells were harvested in a previously described protein lysis buffer. A. Z. Zhao et al., 1997, Proc. Natl. Acad. Sci. U.S.A. 94, 322. The protein extract was subjected to a western blot assay with an anti-phospho-STAT3 specific antibody (Cell Signaling, Beverly, Mass.). For studies involving the primary hypothalamic neurons, the rat hypothalamus was surgically isolated right after euthanasia, and immediately placed in the DMEM for incubation with leptin in the presence or absence of CRP.
(§2) To determine if the interaction between CRP and leptin influences cellular actions of leptin, we assessed the ability of leptin to stimulate tyrosine phosphorylation of STAT3 and PI3-kinase activity in the presence of CRP in vitro.

[3] = tested on: ob/ob mice; test: Co-infusion of Peptide E with human CRP and leptin into ob/ob mice; assay type: in vivo, mouse; conditions: for restoration of leptin effect on body weight / restoration of leptin effect on food-intake: Pep-E 24 or 48 μg/day/mouse with human CRP 48 and leptin 12 μg/day/mouse
Method: FIG. 10. […] Infusion dosages for human CRP and leptin were 48 μg/day/mouse and 12 μg/day/mouse, respectively. The infusion rate for Pep-E (P) was 24 μg/day/mouse (medium dosage, abbreviated “m”) and 48 μg/day/mouse (high dosage, abbreviated “h”). Food-intake (FIGS. 10(A & C)) and body weight (FIGS. 10(B & D)) were monitored daily throughout the infusion. The arrows in A-D indicate the day of surgery. At the end of infusion, blood samples were collected for the measurement of blood-glucose, human CRP, and human leptin. The serum concentrations of human CRP and human leptin were 0.85±0.1 μg/ml and 18 ng±2 ng/ml, respectively. […] The glucose concentration from the mice infused with human CRP and leptin, but NOT with Pep-E was also shown.
In the in vivo experiment, the Peptide E polypeptide was co-infused through mini-osmotic pumps with human CRP and leptin into the ob/ob mice. Food-intake (24 hours) and body weight were followed during the infusion period (FIG. 10A-10D).

[4] = biological target: mouse leptin (Mus musculus, UniProt P41160); test: Immunoprecipitation of rat CRP with mouse leptin; assay type: binding; conditions: leptin and CRP mixture and rat serum
Method: Direct binding of […] and leptin in an immunoprecipitation assay was determined. Rat CRP was purified from fresh rat serum to >95% employing a previously established affinity-purification protocol. J. Tseng et al., 1988, Mol. Immunol. 25, 679. This purity is very similar to the human CRP preparation obtained from a commercial source (CHEMICON International). The purified human- and rat-CRP proteins were pre-mixed with recombinant human and mouse leptin, respectively, before addition of specific antibodies against human- and mouse-leptin. The concentrations of CRP and leptin in the precipitation reaction were all within the physiological ranges (M. B. Schulze et al., 2004, Diabetes Care 27, 889; T. Kazumi et al., 2003, Metabolism 52, 1113).
In parallel experiments, recombinant leptin was also pre-mixed with human- or rat serum to allow for potential direct interactions prior to immunoprecipitation. The precipitation pellets obtained were subjected to western blot assays with specific anti-CRP antibodies. […] Because of the similarities between rat CRP and human CRP in the binding to leptin and of our main interest in the relevance to human obesity, focus was placed on potential functional effects of human CRP in the subsequent experiments.

[5] = tested on: insulin-stimulated PI3-kinase; test: Insulin-stimulated PI3-kinase activity in differentiated 3T3-L1 adipocytes (specificity control); assay type: cell-based
[6] = tested on: mouse leptin-induced STAT3 activation; test: Leptin-induced STAT3 tyrosine phosphorylation in HEK293 cells expressing OB-Rb, mouse leptin; assay type: cell-based; conditions: murine leptin 2 nM
Method: as §1, §2

Sequence of mouse leptin (P41160 22-167): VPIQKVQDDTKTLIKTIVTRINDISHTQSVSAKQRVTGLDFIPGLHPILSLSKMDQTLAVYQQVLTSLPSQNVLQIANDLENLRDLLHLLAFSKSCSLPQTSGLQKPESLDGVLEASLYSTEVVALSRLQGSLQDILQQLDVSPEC

NH2—W—P—L—H—C—S—COOH (H-[dW][dP][dL][dH][dC][dS]-OH; SMILES CC(C)C[C@@H](NC(=O)[C@H]1CCCN1C(=O)[C@H](N)Cc1c[nH]c2ccccc12)C(=O)N[C@H](Cc1c[nH]cn1)C(=O)N[C@H](CS)C(=O)N[C@H](CO)C(=O)O; listed as Homo sapiens) [SEQ ID NO:5, D-form hex-peptide reported by Grasso, et al]
restoration of leptin-stimulated STAT3 activation in the presence of human CRP [1]: failed to restore leptin-stimulated STAT3 activation

NH2-S-C-H-L-P-W-COOH (H-SCHLPW-OH; listed as Homo sapiens) [SEQ ID NO:3, 6 amino acid polypeptide reported in U.S. Pat. No. 6,777,388 to Grasso, et al]
restoration of leptin-stimulated STAT3 activation in the presence of human CRP [1]: unable to block the negative effect of human CRP on the signaling capability of human leptin; also recorded: failed to restore leptin-stimulated STAT3 activation

human serum amyloid P-component (SAP): human serum amyloid P-component, control protein [reference compound]
effect on leptin-induced tyrosine phosphorylation of STAT3 [2]: did not significantly alter leptin-stimulated phosphorylation of STAT3

Peptide E: chemically synthesized polypeptide of 27 amino acids representing a segment of human leptin (SEQ ID NO:2) (LAFSKSCHLPWASGLETLDSLGGVLEA; listed as Homo sapiens)
STAT phosphorylation by the peptide itself ([1]; Peptide-E by itself): did not induce any changes in STAT phosphorylation
restoration of leptin effect on body weight [3]: could restore both of these functions of human leptin
restoration of leptin effect on food-intake [3]: could restore both of these functions of human leptin
restoration of leptin effect on body weight ([3]; listed as Peptide-E): restored the physiological effects of human leptin
restoration of leptin effect on food-intake ([3]; listed as Peptide-E): restored the physiological effects of human leptin
restoration of leptin effect on blood glucose ([3]; end of infusion, high dosage of Pep-E 48 μg/day/mouse with human CRP and leptin): could restore the beneficial effect of human leptin on blood glucose

B1: rat CRP: rat C-reactive protein purified from fresh rat serum to >95% (protein)
chain: HEDMSKQAFVFPGVSATAYVSLEAESKKPLEAFTVCLYAHADVSRSFSIFSYATKTSFNEILLFWTRGQGFSIAVGGPEILFSASEIPEVPTHICATWESATGIVELWLDGKPRVRKSLQKGYIVGTNASIILGQEQDSYGGGFDANQSLVGDIGDVNMWDFVLSPEQINAVYVGRVFSPNVLNWRALKYETHGDVFIKPQLWPLTDCCES
direct binding to mouse leptin (immunoprecipitation with anti mouse-leptin, anti-CRP western blot) [4]: could also bring down rat CRP
effect on insulin-stimulated PI3-kinase activity [5]: did not block insulin-stimulated PI3-kinase
effect on mouse leptin-induced STAT3 phosphorylation [6]: attenuate the tyrosine-phosphorylation of STAT3; also recorded: higher concentrations of rat- than human-CRP are required to achieve the equivalent effects; also recorded: Attenuating effects
